Source: the nanobody polyreactivity screen of Harvey et al. (2022)

Assay: yeast display, Sf9 membrane polyspecificity reagent, FACS + sequencing; frameworks hold sequencing errors
How it was run: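 Sorting gates, low and high (top ~1%), were placed on anti-HA fluorescence to track expression and on streptavidin fluorescence to track reagent binding. A clone's polyreactivity label is taken from the gate it came out of. The reagent was 10% biotinylated, detergent-solubilized Sf9 membrane, applied for 1 hour at 4 °C to galactose-induced yeast display cells.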

| Sequence | polyreactivity (PSR sort gate) |
| --- | --- |
| QVQLVESGGGLVQAGGSLRLSCAASGYTFSSYAMGWYRQAPGKERELVAAITIGGGTNYADSVKGRFTISRDNAKNTVYLQMNSLKPEDTAVYYCNRDVALLEHPVPKKEFGYWGQGTQVTVSS | low polyreactivity |
| QVQLVESGGGLVQAGGSLRLSCAASGYTFSYYAMGWYRQAPGKERELVAAINYSGGRTYYADSVKGRFTISRDNAKHTVYLQMNSLKPEDSAVDYCAARGGFGMDYWGQGTQVTVSS | high polyreactivity |
| QVQLVESGGGLVQAGGSLRLSCAASGYTFTAYAMGWYRQAPGKERELVAAISKGGGSTYYADSVKGRFTISRDNAKNTVYLQMNSLKPEDTAVYYCAADTYQGVKYYYWGQGTQVTVSS | high polyreactivity |
| QVQLVESGGGLVQAGGSLRLSCAASGYTFTIYALGWYRQAPGKEMELVASISIDGSTYYADSVKGRFTISRDNAKNTVYLQMNSLKPEDTAVYYCAADYYYYTPGFDYWGQGTQVTVSS | low polyreactivity |
| QVQLVESGGGLVQAGGSLRLSCAASGYTFTRYAMGWYRQAPGKEREFVAAITSGGGSTYYADSVKGRFTISRDNAKNTVYLQMNSLKPEDTAVYYCAATRLVSYHYPDLDSQQGGYWGQGTQVTVSS | low polyreactivity |
| QVQLVESGGGLVQAGGSLRLSCAASGYTFVGYAMGWYRQAPGKERELVASISTGDSTYYADSVKGRFTISRDNAKNTVYLQMNSLKPEDTAVYYCAADSWYFRGMDYWGQGTQVTVSS | low polyreactivity |
| QVQLVESGGGLVQAGGSLRLSCAASGYTFVIYAMGSYRQAPGKERELVAAITTIGGRTYYADSVKGRFTISRDNAKNNVYLQMNSLKPEDTAVYYCAADIRSNRLYDGGYWGEGTQVTVSS | low polyreactivity |
| QVQLVESGGGLVQAGGSLRLSCAASGYTFVLNAMGWYRQAPGKEREFFAAITWSGGSTYYADSVKGRFTISRDNAKNTVYLQMNSLKPEDTAVYYCARSSRGKLDYWGQGTQVTVSS | low polyreactivity |
| QVQLVESGGGLVQAGGSLRLSCAASGYTFVTYAMGWYRQAPGKERELVAAISYTGGSTYYADSVKGRFTISRDNAKNTVYLQMNSLKPEDTAVYYCATLRNHYRYDYWGQGTQVTVSS | low polyreactivity |
| QVQLVESGGGLVQAGGSLRLSCAASGYTFVYNAMGWYRQAPGKERELVAAITWGGAGTYYADSVKGRFTISRDNAKNTVYLQMNSLKPEDTAVYYCAAPSPRSSAYTYRGDYWGQGTQVTVSS | low polyreactivity |
| QVQLVESGGGLVQAGGSLRLSCAASGYTFYAMGWYRQAPGKERELVAAITYRGARTYYADSVKGRFTISRDNAKNTVYLQMNSLKPEDTAVYYCNADYWGQGTEVTVSS | low polyreactivity |
| QVQLVESGGGLVQAGGSLRLSCAASGYTFYENAMGWYRQAPGKERELVAAITSDGSTYYADSVKGRFTISRDNAKNTVYLQMNSLKPEDTAVYYCAVDEAPPELVYWFFTYYYGGQGTQVTVSS | low polyreactivity |
| QVQLVESGGGLVQAGGSLRLSCAASGYTFYVYAMGWYRQAPGKERELVAAIRSGGTTYYADSVKGRFTISRDNAKNTVYLQMNSLKPEDTAVYYCAAVSSDYPFEGNYWGQGTQVTVSS | low polyreactivity |
| QVQLVESGGGLVQAGGSLRLSCAASGYTFYVYTMGWYRQAPGKERELVAAISGSGTSTYYADSVKGRFTISRDNAKNTVYFQMNSLKPVDTAVYYCAAEDYSRDVYSYDYWGQGTQVTVSS | low polyreactivity |
| QVQLVESGGGLVQAGGSLRLSCAASGYTFYYAMGWYRQAPGKERELVAAISAGGGRTYYADSVKGRFTISRDNAKNTVYLQMNSLKPEDTAVYYCAGDYFYSQVAYVYWGQGTQLTVSS | high polyreactivity |
| QVQLVESGGGLVQAGGSLRLSCAASGYTIRYYAMGWYRQAPGKERDLVAAISSSGGNTYYADSVKGRFTISSDNAKNTVYLQMNSLKPEDTAVYYCAAAYHPYHRVTGHDGGYDYWGQGTQVTVSS | low polyreactivity |
| QVQLVESGGGLVQAGGSLRLSCAASGYTLDGYAMGWYRQAPGKERDFVAAITFRGGGTYYADSVKGRFTISRDNSKNTVYLQMISLKPEDSAVYYCNADTYDPFPWGSDYWGQGTQVNVSS | high polyreactivity |
| QVQLVESGGGLVQAGGSLRLSCAASGYTLGVNAMGWYRQAPGKERELVAAINYIDTRTYYADSVKGRFTISRDNAKNTVYLQMNSLKPEDTAVYYCAALPYVPWVKRYYYWGQGTQVTVSS | low polyreactivity |
| QVQLVESGGGLVQAGGSLRLSCAASGYTLRPNGMGWYRQAPGKERELVAAISSGGSTYYADSVKGRFTISRDNAKNTVYLQMNSLKPEDTAVYYCAAEYWYDYWGQGTQVTVSS | low polyreactivity |
| QVQLVESGGGLVQAGGSLRLSCAASGYTSYVYAMGWYRQAPGKERELVAAISLRTASTYYADSVKGRFTISRDNAKNTVYLQMNSLKPEDTAVYYCARGRETYRYCYRLNYWGQGTQVTVSS | high polyreactivity |
| QVQLVESGGGLVQAGGSLRLSCAASGYTVGTYDMGWYRQAPGKERELVAAISIGGSTNYADSVKGRFTMSRDNAKNTVYLQMNSLKPDATAVSYCASEVNVGTLLLSVIVEDGDYWGQGTQVTVSS | low polyreactivity |
| QVQLVESGGGLVQAGGSLRLSCAASGYTYGNYAMGWYRQAPGKERELVAAITSRGGRTYYADSVKGRFTISRDNAKNTVYLQMNSLKPEDTAVYYCAARGRYKDGYRMDYWGQGTQVTVSS | high polyreactivity |

| Sequence | polyreactivity (PSR sort gate) |
| --- | --- |
| QVQLVESGGGLVQAGGSLRLSCAASGYTYRYYAMGWYRQAPGKERELVAAISASGGITYYADSVKGRFTISRDNAKNTVDLQMNCLNPEDTAVYYCATTGWGSWFDPYDYWGQGTQVTVSS | high polyreactivity |
| QVQLVESGGGLVQAGGSLRLSCAASRFIFGKYAMGWYRQAPGKEREFVAAITRSGGSTYYADSVKGRFTISRDNAKNTVYLQMNSLKPEDTAVYYCAAYSLKYYNGYDYWGQGTQVTVSS | high polyreactivity |
| QVQLVESGGGLVQAGGSLRLSCAASRFIFYYYALGWYRQAPGKERELVAAITWSGGSTYYADSVKGRFTISRDNAKNTVYLQMNSLKPEETAEYYCAVYSTEYKLLWGGISYDYWGQGTQVTVSS | low polyreactivity |
| QVQLVESGGGLVQAGGSLRLSCAASRFNFDRNVSGWYRQEPGKERELVAAITGSGGRTYYADSVKGRFKISRDNAKNTVYLQMNSLKPEDTAVYYCARAFGQRRYVYWGQGTQVTVSS | high polyreactivity |
| QVQLVESGGGLVQAGGSLRLSCAASRITFRFYAMGWSRQAPGKERELVAVISRGGGTTYYADSVKGRFTISRDNAKNTVYLQMNSLKPEDTAVYYCNAVIAWYRSDEYDYWGQGTQVTVSS | high polyreactivity |
| QVQLVESGGGLVQAGGSLRLSCAASRMGWYRQAPGKERELVARISGGVSTNYADSVRGRFTISRDNAKNTVYLQMNSVKPEDTAVYYCAADPLDTYDYWGQGTQATVSS | low polyreactivity |
| QVQLVESGGGLVQAGGSLRLSCAASRRIFYGYAMGWYRQAPGKERELVAAISLRTGSTFYADSVKGRFTISRDNAMNTVYLQMNSLKPEDTAVYYCAKEESYRPYIYVMDYWGQGTQVTVSS | low polyreactivity |
| QVQLVESGGGLVQAGGSLRLSCAASRRISHYYAMGWYRQAPGKERALVASIRISGGSTYYADSVKGRFTISRDYAKNTVFLQMNSLKPEDTAVYYCATLGYNWRRLYYWGQGTEVTVSS | high polyreactivity |
| QVQLVESGGGLVQAGGSLRLSCAASRRIYGGNAMGLNRKAPGKERELVAAINSSGGRTYYADSVKGRFKISRDNAKNTVYLQMKSLKTEDTAVYYCAGRVGCNWYDYWGQGTQVPVSS | high polyreactivity |
| QVQLVESGGGLVQAGGSLRLSCAASRRTLGKYVMGRYRQQPGKERELVPAIRSGTNTYYADSVKGRFTISRDNAKNTVYLQMNSLIPEDTAVYYCGAARYTKFDYWGQGTQLTVSS | high polyreactivity |
| QVQLVESGGGLVQAGGSLRLSCAASRSIFEANDMGWYRQAQGKERELVAAIDANTGSTYYADSVKGRFTISRDNAKNTVYLQMNRLKPEDTAVYYCNAQVYLHTAYDYWGQGTQVTVSS | low polyreactivity |
| QVQLVESGGGLVQAGGSLRLSCAASRSTFAYYSMGWYRKEPGKETELVAAITRGGSTNYADSVKGRFRISRDNAKNTVLLQMNSLKPEDTAVYYCAAGDVQDYEYDYLGQGTQVTVSS | low polyreactivity |
| QVQLVESGGGLVQAGGSLRLSCAASRSTFPWYAMGWYRQAPGKERELVARINSGGSTTYADSVKGRFTISRDNAKNTVYLQMNSLKPEDTAVYYCAADRWYSTYLASYYGYDYWGQGTQVTVSS | low polyreactivity |
| QVQLVESGGGLVQAGGSLRLSCAASRSTLLSNAMGWYTQAPGKERELVAAINYSGGRTYYADSVKGRFTISRDNAKNTVYLQINSLKPVDTAVYYCNALSSGHGSSSRYDYWGQGTQVTVSS | low polyreactivity |
| QVQLVESGGGLVQAGGSLRLSCAASRTIIASYAMGSYRQAPGKERELVAAISRSGGRTYYADSVKGRFTISRDNAQNTVYLQMNSLKPEDSAVYYCNVLQPQSSDWLITYDYWGQGTQVTVSS | high polyreactivity |
| QVQLVESGGGLVQAGGSLRLSCAASRYYAMGWYRQAPGKERELVPAITWSGGTTYYADSVKGRFTISRYNGKNTVYLQMNSLTPEDTAVYYCNADFVRFTRHKKYYYWGQGTQVTVSS | low polyreactivity |
| QVQLVESGGGLVQAGGSLRLSCAASVFTFDENAMGWYRQAPGINYSGASTYYADSVKGRFTISRDNAKNTVYLQMNSLKPDDTAVYYCAAEVVAQMNYWGQGTQVTVSS | low polyreactivity |
| QVQLVESGGGLVQAGGSLRLSCAASVFTFSRYAMGWYRQAPGKERELVAAITSRGGSTYYADSVKGRFTISRDNAKNTVYLQMNSLKPEDTAVYYCAASGRNRKDGLYEYYYWGQGTQVTVSS | high polyreactivity |
| QVQLVESGGGLVQAGGSLRLSCAASVFTFWWYDMGWYIQAPGKERELVAAISRGGSTYYADSVKGRFTISRDNAKNTVNLQMNSLKPEDTAVYYCAADTTYGINRREYWGQGTQVTVSS | low polyreactivity |
| QVQLVESGGGLVQAGGSLRLSCAASVGIFIYNAMGWYRQAPGKEREFVAAINISGGNTYYADSVKGRFTISRDNAKNTVFLQMNSLKPEDTGVYYCAARYASCWWIRYYYWGQGTQVTVSS | high polyreactivity |
| QVQLVESGGGLVQAGGSLRLSCAASVIIFSYNAMGWYRQAPGKERELVAAISYSGGSTYYADSVKGRFTISRDNAKNTVYLQMNSLKPEDTAVYYCAAEKYLGELDYWGQGTQVTVSS | low polyreactivity |
